Source: paper doi:10.1101/2023.04.03.535455 (bioRxiv, 2023)

Legend:
[1] = molecular target: T1, recombinant wild-type human PI31 (Proteasome Inhibitor of 31,000 daltons) (human, UniProt Q92530 1-271); assay: cryo-EM structure
T1 sequence: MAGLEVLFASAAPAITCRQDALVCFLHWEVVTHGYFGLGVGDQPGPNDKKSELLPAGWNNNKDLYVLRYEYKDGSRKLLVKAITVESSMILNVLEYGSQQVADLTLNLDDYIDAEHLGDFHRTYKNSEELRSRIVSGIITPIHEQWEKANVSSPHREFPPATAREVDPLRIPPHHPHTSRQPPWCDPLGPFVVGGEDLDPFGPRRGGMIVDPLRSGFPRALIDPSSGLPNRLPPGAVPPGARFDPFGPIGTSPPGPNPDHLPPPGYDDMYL

[2] = molecular target: T2, His-PI31 wild-type (human) (human), Q92530; assay: mass photometry; conditions: remark: other sources report otherwise
T2 chain: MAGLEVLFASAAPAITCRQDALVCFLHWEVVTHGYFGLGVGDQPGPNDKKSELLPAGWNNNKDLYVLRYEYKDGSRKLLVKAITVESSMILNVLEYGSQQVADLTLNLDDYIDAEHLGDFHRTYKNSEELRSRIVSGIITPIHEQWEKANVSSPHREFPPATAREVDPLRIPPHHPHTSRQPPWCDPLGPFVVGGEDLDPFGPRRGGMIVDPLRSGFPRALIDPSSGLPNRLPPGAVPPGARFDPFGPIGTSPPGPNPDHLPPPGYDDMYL

B1: β2 subunit of the bovine 20S proteasome (natural protein)
chain: TTIAGVVYKDGIVLGADTRATEGMVVADKNCSKIHFISPNIYCCGAGTAADTDMTTQLISSNLELHSLSTGRLPRVVTANRMLKQMLFRYQGYIGAALVLGGVDVTGPHLYSIYPHGSTDKLPYVTMGSGSLAAMAVFEDKFRPDMEEEEAKKLVSEAIAAGIFNDLGSGSNIDLCVISKSKLDFLRPYSVPNKKGTRFGRYRCEKGTNAVLTEKVTTLEIEVLEETVQTMDTS
binding result [1]: binds

B2: β5 subunit of the bovine 20S proteasome (natural protein)
chain: TTTLAFKFRHGVIVAADSRATAGAYIASQTVKKVIEINPYLLGTMAGGAADCSFWERLLARQCRIYELRNKERISVAAASKLLANMVYQYKGMGLSMGTMICGWDKRGPGLYYVDSEGNRISGATFSVGSGSVYAYGVMDRGYSYDLEVEEAYDLARRAIYQATYRDAYSGGSVSLYHVREDGWIRVSSDNVADLHDKYSGSTH
binding result [1]: binds

B3: His-PI31 wild-type (human), Q92530 1-271 (natural protein)
chain: MAGLEVLFASAAPAITCRQDALVCFLHWEVVTHGYFGLGVGDQPGPNDKKSELLPAGWNNNKDLYVLRYEYKDGSRKLLVKAITVESSMILNVLEYGSQQVADLTLNLDDYIDAEHLGDFHRTYKNSEELRSRIVSGIITPIHEQWEKANVSSPHREFPPATAREVDPLRIPPHHPHTSRQPPWCDPLGPFVVGGEDLDPFGPRRGGMIVDPLRSGFPRALIDPSSGLPNRLPPGAVPPGARFDPFGPIGTSPPGPNPDHLPPPGYDDMYL
stoichiometry N [2]: 2
